Assay [1] has as its target T1, human serum amyloid P component (SAP), purified (Homo sapiens, UniProt P02743 20-223).
T1 construct: Immobilised directly, amine-coupled, captured on O-phosphoethanolamine or by sheep polyclonal antibody, depending on the assay; also called human SAP; native human SAP
The assay is described as follows: direct ELISA, human SAP coated at 5 µg/mL, detection with HRP rabbit anti-mouse IgG. As to the method:
(§1) 1 μg/mL or 5 μg/mL human SAP was directly immobilised onto an ELISA plate and blocked with 1% BSA/TBS plus 0.05% TWEEN20. Anti-SAP antibodies from purified material were titrated across the plate. Bound antibody was detected by treatment with a horse-radish peroxidase (HRP)-conjugated rabbit-anti-mouse IgG antibody (Dako, P0260). The ELISA was developed using O-phenylenediamine dihydrochloride (OPD) peroxidase substrate (Sigma, P9187).
In general terms: ELISA stands for enzyme-linked immunosorbent assay.

The target of assay [2] is T1, human serum amyloid P component (SAP), …. The assay is described as follows: direct ELISA, human SAP coated at 1 µg/mL, detection with HRP rabbit anti-mouse IgG. On the procedure: as §1
For assay [3] the target is unchanged. Kind of assay: Biacore (BIAcoreX), human SAP covalently immobilised on the chip; mean and SD of 3 replicates.
For assay [4] the target is unchanged. Kind of assay: Biacore, human SAP captured on immobilised O-phosphoethanolamine (CM5 chip, calcium), bivalent analyte model. As to the method:
(§2) O-phosphoethanolamine was immobilised on a Biacore CM5 chip by primary amine coupling in accordance with the manufacturer's instructions. Human SAP was then captured on the surface in the presence of calcium chloride, in order to replicate in the Biacore system in vitro, the precise orientation of SAP molecules bound to amyloid fibrils in vivo. Anti SAP antibodies were then passed over this surface at 256, 64, 16, 4, 1 nM and a binding sensorgrams obtained. Analysis was carried out at 25° C. using 4% BSA, 10 mM Tris, 140 mM NaCl, 2 mM CaCl₂, 0.05% surfactant P20, 0.02% Na N₃, pH 8.0 as running buffer. […] Data generated were double referenced with a buffer injection over the human SAP surface and analyzed using the bivalent analyte model in the Biacore T100 evaluation software.

Assay [5] shares this target. Kind of assay: competition ELISA, human SAP coated at 5 µg/mL, constant SAP-E chimera (cSAP-E) as competitor, bound chimera detected with goat anti-human kappa light chain peroxidase conjugate. The source says: A constant concentration of chimeric anti-SAP mAb was mixed with serial diluted (1:1) amounts of mouse anti-SAP mAbs. Plates were washed and the amount of chimeric antibody bound to the immobilised human SAP was detected using goat anti-human Kappa Light chain peroxidase conjugate (Sigma, A7164). The ELISA was developed using O-phenylenediamine dihydrochloride (OPD) peroxidase substrate (Sigma, P9187).

The target is the same in assay [6]. Kind of assay: Biacore, human SAP captured on immobilised O-phosphoethanolamine (CM5 chip, calcium), bivalent analyte model; kd outside the Biacore measurement range. On the procedure: as §2
Assay [7] concerns the target T2, human SAP N-terminal 1-158-homoserine lactone polypeptide (CNBr cleavage fragment) (Homo sapiens, position 159 converted from methionine to homoserine lactone).
T2 construct: Tested in western blot from SDS-PAGE; also called approximately 20 kD fragment
T2 chain: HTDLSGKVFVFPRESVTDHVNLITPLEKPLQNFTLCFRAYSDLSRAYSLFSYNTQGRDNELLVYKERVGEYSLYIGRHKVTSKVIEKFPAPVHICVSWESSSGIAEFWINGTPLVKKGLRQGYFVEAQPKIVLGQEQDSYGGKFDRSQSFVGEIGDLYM
Kind of assay: western blot from SDS-PAGE. For orientation: Immunoblotting shows a protein as a band on a membrane.

Assay [8] addresses T3, human SAP 1-140 fragment (chymotrypsin digestion in the absence of calcium) (Homo sapiens).
T3 construct: Tested in western blot from SDS-PAGE; also called residue 1-140 fragment
T3 chain: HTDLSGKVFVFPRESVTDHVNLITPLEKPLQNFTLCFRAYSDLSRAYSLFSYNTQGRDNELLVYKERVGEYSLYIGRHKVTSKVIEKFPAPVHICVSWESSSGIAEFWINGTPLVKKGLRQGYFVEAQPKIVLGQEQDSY
The assay is described as follows: western blot from SDS-PAGE.

The target in assay [9] is T4, isolated pure human C-reactive protein (CRP) (human, UniProt P02741 19-224).
T4 construct: also called human CRP
T4 sequence (looked up): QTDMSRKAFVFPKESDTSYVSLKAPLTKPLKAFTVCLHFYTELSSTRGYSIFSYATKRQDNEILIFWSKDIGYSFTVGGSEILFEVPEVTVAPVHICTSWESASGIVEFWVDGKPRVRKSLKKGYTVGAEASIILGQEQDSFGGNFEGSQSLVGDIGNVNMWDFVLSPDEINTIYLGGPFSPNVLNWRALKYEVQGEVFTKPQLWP
The assay is described as follows: western blot from SDS-PAGE.

The target of assay [10] is T1, human serum amyloid P component (SAP), …. The assay is described as follows: Biacore (BIAcoreX), human SAP covalently immobilised on the chip; mean and SD of 3 replicates; human SAP covalently immobilised on the chip; mean of 3 replicates. On the technique in general: SPR reads the build-up and loss of mass on a sensor chip optically.
The target is the same in assay [11]. The assay is described as follows: direct ELISA, human SAP coated at 1 µg/mL, detection with goat anti-human kappa light chain peroxidase conjugate. On the procedure: (§3) 1 μg/mL human SAP was directly immobilised onto an ELISA plate and blocked with 1% BSA/TBS plus 0.05% TWEEN20. Anti-SAP antibodies from the test supernatants or purified material were titrated across the plate. Bound antibody was detected by treatment with goat anti-human Kappa Light Chains peroxidase conjugate (Sigma, A7164). The ELISA was developed using O-phenylenediamine dihydrochloride (OPD) peroxidase substrate (Sigma, P9187).

For assay [12] the target is unchanged. Kind of assay: Biacore, human SAP amine-coupled on C1 chip, culture supernatant, 1 to 1 dissociation model, single curve. As to the method: Human and cynomologus monkey SAP were immobilised on a Biacore C1 chip by primary amine coupling in accordance with the manufacturer's instructions. […] All runs were double referenced with a buffer injection for purified sample or media for the supernatant samples over the human and cyno SAP surfaces. Analysis was carried out at 25° C. using HBS-EP buffer. […] Data were analysed using the 1 to 1 dissociation model within the Biacore T100 evaluation software.
The values were based on a single curve and used for ranking purposes between the different constructs for binding to human SAP.

Assay [13] has the same target. The assay is described as follows: Biacore, human SAP amine-coupled on CM3 chip, bivalent analyte model. On the procedure: Human SAP was immobilised on a Biacore CM3 chip by primary amine coupling in accordance with the manufacturer's instructions. […] All runs were double referenced with a buffer injection over the human SAP surface. Analysis was carried out at 25° C. using HBS-EP buffer.

For assay [14] the target is unchanged. The assay is described as follows: ELISA, 1 ug/mL human SAP directly immobilised. As to the method: as §3
For assay [15] the target is unchanged. The assay is described as follows: binding ELISA and Biacore off-rate ranking.
For assay [16] the target is unchanged. Kind of assay: Biacore kinetics, human SAP captured on immobilised O-phosphoethanolamine; alanine at position 91 of L0, not wild-type H3L0. On the procedure:
as §2

Substitutions are numbered along the chain they refer to.

In general, EC50 (read off the curve) refers to the concentration giving half of the maximal effect. Read a low EC50 (read off the curve) as higher potency in that assay. For orientation: koff means a measure of how fast the partners let go of each other. A word on the kon: it is a measure of how fast the partners come together.

B1: SAP-K mouse monoclonal anti-human SAP antibody (antibody, mouse IgG2a, V domains shown)
VH: QVQLQQPGAELIKPGASVKLSCKASGYTFTSYWMHWVKQRPGQGLEWIGMIHPNSVNTNYNEKFKSKATLTVDKSSSTAYMQLNSLTSEDSAVYYCARRNDYYWYFDVWGTGTTVTVSS
VL: DIVMTQSQKFMSTSVGDRVSVTCKASQNVNSNVAWYQQKPGQSPKALIYSASYRYSGVPDRFTGSGSGTDFTLTITNVQSEDLAEYFCQQCNNYPFTFGSGTKLEIK
notes: also called Mouse SAP-K; murine SAP-K
With B1, the “EC50 (read off the curve)” value in assay [1] is about 0.02 µg/mL; in assay [2], about 0.04 µg/mL. For the same molecule, the results for the Kd in assay [3] and in assay [4] were 1 nM and 0.73 nM, respectively. Besides, the koff in assay [3] worked out at 1.7e-05 s⁻¹; in assay [4], 0.000219 s⁻¹. Also, the kon in assay [3] turned out to be 31800 M⁻¹ s⁻¹; in assay [4], 300000 M⁻¹ s⁻¹.

B2: SAP-E mouse monoclonal anti-human SAP antibody (antibody, mouse IgG2a, V domains shown)
VH: QASLQQSGTELVRSGASVKMSCKASGFTFATYNMHWIKQTPGQGLEWIGYIYPGDGNANYNQQFKGKATLTADTSSNTAYMQISSLTSEDSAVYFCARGDFDYDGGYYFDSWGQGTTLTVSS
VL: DIQMTQSPASLSASVGETVTITCRASENIYSYLAWYQQKQGRSPQLLVHNAKTLAEGVPSRVSGSGSGTHFSLKINGLQPEDFGNYYCQHHYGAPLTFGAGTKLELK
notes: also called Mouse SAP-E; murine SAP-E
For the molecule B2, in assay [1], the “EC50 (read off the curve)” value was about 0.04 µg/mL. Moreover, in assay [5], the “IC50 (read off the curve)” value is about 2 µg/mL. For the same molecule, the Kd in assay [3] was 5 nM. The koff is 6e-05 s⁻¹ in [3] and under 1e-05 s⁻¹ in assay [6]. The values for the kon in [4] and in assay [10] were 31500 M⁻¹ s⁻¹ and 20000 M⁻¹ s⁻¹, respectively. Also, the binding result was “binds” in assay [7]; “binds” in assay [8]; “no binding (tested: 500 ng and 100 ng loaded)” in [9].

B3: SAP-K H1L0 humanised antibody (antibody, V domains shown)
VH: QVQLVQSGAEVKKPGSSVKVSCKASGYTFTSYWMHWVRQAPGQGLEWMGMIHPNSVNTNYNEKFKSRVTITADKSTSTAYMELSSLRSEDTAVYYCARRNDYYWYFDVWGQGTLVTVSS
VL: DIQMTQSPSSLSASVGDRVTITCKASQNVNSNVAWYQQKPGKAPKLLIYSASYRYSGVPSRFSGSGSGTDFTLTISSLQPEDFATYYCQQCNNYPFTFGQGTKLEIK
Turning to B3, the “EC50 (read off the curve)” value in assay [11] is about 0.1 µg/mL. This molecule came in with a koff in [12] of 0.0171 s⁻¹. Also, in assay [13], the Kd is 155 nM, the koff came to 0.0178 s⁻¹ and the kon came out at 115000 M⁻¹ s⁻¹. Moreover, in [14], the “fold loss of human SAP binding activity compared to the SAP-K chimera” value (shortened to “fold loss of human SAP binding activity”) was about 2 fold.

B4: SAP-K H2L0 humanised antibody (antibody, V domains shown)
VH: B3 VH with M48I, V68A
VL: B3 VL
On to B4, for which, in assay [12], the koff stood at 0.0204 s⁻¹. In addition, in assay [13], the Kd is 191 nM, the koff was 0.022 s⁻¹ and the kon was 115000 M⁻¹ s⁻¹. Also, the “fold loss of human SAP binding activity” value in assay [14] was about 2 fold.

B5: SAP-K H1 with L0 91A humanised light chain variant (antibody, human IgG1, V domains shown)
VH: B3 VH
VL: B3 VL with C91A
notes: Human IgG1/kappa; also called alanine variant paired with H1
As for B5, the binding result in assay [15] is “binds”.

B6: SAP-K H3L1 humanised antibody (antibody, V domains shown)
VH: B3 VH with M48I, V68A, I70L, A72V
VL: B3 VL with L46A
For B6, the koff in assay [12] turned out to be 0.0236 s⁻¹.

B7: SAP-K H0L0 humanised antibody (antibody, V domains shown)
VH: B3 VH with Y27G, T30S
VL: B3 VL
B7 returned a koff in assay [12] of 0.0263 s⁻¹. In assay [13], the Kd was found to be 739 nM, the koff came to 0.0449 s⁻¹ and the kon turned out to be 60800 M⁻¹ s⁻¹. For the same molecule, in [14], the “fold loss of human SAP binding activity” value was about 2 fold.

B8: SAP-K H2L1 humanised antibody (antibody, V domains shown)
VH: B3 VH with M48I, V68A
VL: B3 VL with L46A
B8 yielded a koff in assay [12] of 0.0321 s⁻¹.

B9: SAP-K H3 with L0 91A humanised light chain variant (antibody, human IgG1, V domains shown)
VH: B3 VH with M48I, V68A, I70L, A72V
VL: B3 VL with C91A
notes: Human IgG1/kappa; also called variant with alanine at position 91
The molecule B9 registered a Kd in assay [16] of 0.436 nM.

B10: SAP-K H1L1 humanised antibody (antibody, V domains shown)
VH: B3 VH
VL: B3 VL with L46A
Molecule B10 registered a koff in assay [12] of 0.0296 s⁻¹.

For the origin of these results see patent publication US20120225055A1 (GlaxoSmithKline, published 2012).
